Data taken from PMC4634129.

Key:
[1] = biological target: RsPIPS-Δ6N (chimeric construct: Af2299 extramembrane domain fused to the N-terminus of PIP synthase (Archaeoglobus fulgidus | Renibacterium salmoninarum)); experiment: crystal structure; RsPIPS-Δ6N, apo, lipidic cubic phase (monoolein), 22 °C, 20% PEG 400, 0.1 M MES pH 6.7, 0.2 M lithium sulfate; space group P 21 21 2, one protomer in the asymmetric unit; 2.5 Å
[2] = biological target: RsPIPS-FL (chimeric construct: Af2299 extramembrane domain fused to the complete RsPIPS sequence abs (Archaeoglobus fulgidus | Renibacterium salmoninarum)); experiment: crystal structure; RsPIPS-FL with CDP-DAG, lipidic cubic phase (2% CDP-dioleoylglycerol/98% monoolein), 22 °C, 30% PEG 300, 0.1 M MES pH 6.0, 0.1 M NaCl, 0.1 M MgCl2; space group P 21, two dimers in the asymmetric unit; 3.6 Å

Row | Substance | stoichiometry N [1] | stoichiometry N [2]
1 | RsPIPS-Δ6N (chimeric construct: Af2299 extramembrane domain fused to the N-terminus of PIP synthase (enzyme) | 2 | 
2 | RsPIPS-FL (chimeric construct: Af2299 extramembrane domain fused to the complete RsPIPS sequence abs (enzyme) |  | 2
